B1: WT STIL CCD peptide (STIL amino acids 718-749) (peptide)
peptide: LSPDAYRFLTEQDRQLRLLQAQIQRLLEAQSL
notes: also called WT CCD; STIL coiled coil peptide; source: synthetic peptide
B2: STIL CCD L718E peptide (peptide)
peptide: ESPDAYRFLTEQDRQLRLLQAQIQRLLEAQSL
notes: source: synthetic peptide
B3: STIL CCD L736E peptide (peptide)
peptide: LSPDAYRFLTEQDRQLRLEQAQIQRLLEAQSL
notes: source: synthetic peptide

How the values were obtained:
[1] = biological target: the molecule itself; test: SEC; 35 μM WT STIL CCD peptide on Superdex30 analytical column, 25 mM sodium phosphate buffer pH 6.8 (IS = 40 mM)
[2] = biological target: the molecule itself; test: SEC; 500 μM WT STIL CCD peptide on Superdex30 analytical column, 25 mM sodium phosphate buffer pH 6.8 (IS = 40 mM)
[3] = biological target: the molecule itself; test: SEC; 250 µl of 100 μM peptide on Superdex30 analytical column, 25 mM sodium phosphate buffer pH 6.8 (IS = 40 mM); comparison of elution profiles

Protein | stoichiometry N [1] | stoichiometry N [2] | stoichiometry N [3]
B1 | ~2 | 4 | ~4
B2 | – | – | ~2
B3 | – | – | ~2

From publication PMC4830966, “Molecular basis of the STIL coiled coil oligomerization explains its requirement for de-novo formation of centrosomes in mammalian cells” (Scientific Reports, 2016)
